Consider 1 molecule from patent US6875581 (GENOPIA BIOMEDICAL, dated 2005).

Where no end group is shown, it is not given here. [ ]: non-standard residue; d: D form. pS = N[C@@H](COP(=O)(O)O)C(=O)O

Test [1] concerns the target T1, calcineurin-A-beta2/calcineurin-B (human, UniProt P16298 2-524; P63098 1-170).
T1 construct: also called CNAb2-pQE30 product
The test can be described thus: laser fluorescence correlation spectroscopy (FCS).

The target in test [2] is T2, calcineurin-A-beta1/calcineurin-B (human, UniProt P16298 2-524; P63098 1-170).
T2 construct: also called CNAb1-pQE30 product
The test can be described thus: laser fluorescence correlation spectroscopy (FCS).

B1: RII-Fluophos (peptide)
peptide: DLDVPIPGRFDRRV[pS](fluorescein)VAAE
notes: Synthetic peptide; It was not converted by calcineurin; also called Fluophos-RII-peptide; fluorescent labeled RII-peptide
B1: the binding result in test [1] and in test [2] was “binds” each time.
